{
  "source": "paper PMC12302927",
  "about": "“Lactate-functionalized 3D-printed PCL/nHA scaffold drives BMSC osteogenesis via metabolic-epigenetic crosstalk” (Materials Today Bio, 2025)",
  "key": {"[1]": {"target": "T1, wild-type STAT1, overexpressed (pLVX-STAT1-WT), lactylated in BMSCs on the PCL/nHA/SL scaffold (UniProt P42224 1-750, lysine lactylation, elevated 2.4-fold on the scaffold (Klac 0.797 ± 0.105); K193 named as the key lactylation site)", "T1 construct": "STAT1, wild type; A mixture of lactylated and unmodified STAT1, overexpressed and endogenous; also called lactylated STAT1; scaffold-containing cells (+STAT1-OE); source: human BMSCs, lentiviral transduction (pLVX-STAT1-WT), cultured on PCL/nHA/SL scaffold, in lysate", "T1 sequence (looked up)": "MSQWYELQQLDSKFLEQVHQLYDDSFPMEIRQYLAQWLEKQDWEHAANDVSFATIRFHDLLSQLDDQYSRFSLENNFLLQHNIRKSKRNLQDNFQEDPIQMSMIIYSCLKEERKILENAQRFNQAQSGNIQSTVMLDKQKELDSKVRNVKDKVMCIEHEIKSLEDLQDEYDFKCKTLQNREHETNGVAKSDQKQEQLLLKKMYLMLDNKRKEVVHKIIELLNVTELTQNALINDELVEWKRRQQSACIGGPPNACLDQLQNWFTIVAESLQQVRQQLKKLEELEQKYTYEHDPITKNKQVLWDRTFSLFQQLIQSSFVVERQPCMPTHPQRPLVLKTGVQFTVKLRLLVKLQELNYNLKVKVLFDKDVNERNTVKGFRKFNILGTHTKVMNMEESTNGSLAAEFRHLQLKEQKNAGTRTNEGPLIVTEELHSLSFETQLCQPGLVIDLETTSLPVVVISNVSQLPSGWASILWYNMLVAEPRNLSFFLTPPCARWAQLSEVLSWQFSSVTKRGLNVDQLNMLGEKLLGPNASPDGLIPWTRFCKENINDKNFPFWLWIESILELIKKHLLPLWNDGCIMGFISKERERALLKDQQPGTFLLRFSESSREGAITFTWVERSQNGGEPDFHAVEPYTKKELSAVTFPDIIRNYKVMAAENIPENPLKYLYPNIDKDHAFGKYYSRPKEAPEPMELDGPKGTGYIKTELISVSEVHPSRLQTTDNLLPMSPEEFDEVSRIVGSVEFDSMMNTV", "assay": "co-IP; BMSC lysates, no osteogenic induction, 48h post-transfection; STAT1 antibody for pull-down with IgG control, Protein A/G agarose; blots probed for lactylation and Runx2; cells scaffold-free or on PCL/nHA/SL scaffold; band intensities quantified", "conditions": "partners not purified"}, "[2]": {"target": "T2, wild-type STAT1, overexpressed (pLVX-STAT1-WT), scaffold-free BMSCs (UniProt P42224 1-750)", "T2 construct": "STAT1, wild type; No tag is stated for this experiment (the rescue lentivirus of another experiment is HA-tagged); The anti-STAT1 antibody precipitates the endogenous STAT1 as well; Lactylation was low in these cells (0.327 ± 0.046); also called STAT1-OE; source: human BMSCs, lentiviral transduction (pLVX-STAT1-WT), scaffold-free, in lysate", "T2 sequence (looked up)": "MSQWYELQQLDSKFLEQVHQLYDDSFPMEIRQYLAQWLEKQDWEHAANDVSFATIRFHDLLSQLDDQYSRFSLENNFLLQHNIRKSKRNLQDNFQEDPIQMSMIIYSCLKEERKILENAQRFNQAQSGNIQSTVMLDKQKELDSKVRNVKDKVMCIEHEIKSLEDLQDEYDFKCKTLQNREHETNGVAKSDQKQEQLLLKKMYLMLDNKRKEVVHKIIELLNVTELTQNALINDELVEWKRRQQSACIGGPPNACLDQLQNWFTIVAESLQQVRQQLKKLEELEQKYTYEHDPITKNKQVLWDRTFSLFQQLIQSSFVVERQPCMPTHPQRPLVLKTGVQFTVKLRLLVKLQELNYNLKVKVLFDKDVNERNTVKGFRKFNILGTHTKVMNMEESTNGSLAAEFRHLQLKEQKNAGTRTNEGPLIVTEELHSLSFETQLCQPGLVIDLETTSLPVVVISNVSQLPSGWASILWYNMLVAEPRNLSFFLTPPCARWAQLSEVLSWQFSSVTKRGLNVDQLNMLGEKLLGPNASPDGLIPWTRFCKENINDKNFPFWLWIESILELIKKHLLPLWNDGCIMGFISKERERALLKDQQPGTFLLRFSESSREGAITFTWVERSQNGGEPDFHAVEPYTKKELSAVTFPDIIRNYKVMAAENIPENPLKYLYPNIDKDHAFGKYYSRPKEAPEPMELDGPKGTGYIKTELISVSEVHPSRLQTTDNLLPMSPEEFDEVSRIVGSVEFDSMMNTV", "assay": "co-IP; BMSC lysates, no osteogenic induction, 48h post-transfection; STAT1 antibody for pull-down with IgG control, Protein A/G agarose; blots probed for lactylation and Runx2; cells scaffold-free or on PCL/nHA/SL scaffold; band intensities quantified", "conditions": "partners not purified"}, "[3]": {"target": "T3, STAT1, endogenous in BMSCs (human (endogenous in BMSCs), UniProt P42224 1-750)", "T3 construct": "STAT1, endogenous in human bone marrow mesenchymal stem cells (ATCC PCS-500-012); STAT1 precipitated with anti-STAT1 antibody from scaffold-free Runx2-OE cells, which carry no STAT1 construct; source: endogenous, human BMSC lysate", "T3 sequence (looked up)": "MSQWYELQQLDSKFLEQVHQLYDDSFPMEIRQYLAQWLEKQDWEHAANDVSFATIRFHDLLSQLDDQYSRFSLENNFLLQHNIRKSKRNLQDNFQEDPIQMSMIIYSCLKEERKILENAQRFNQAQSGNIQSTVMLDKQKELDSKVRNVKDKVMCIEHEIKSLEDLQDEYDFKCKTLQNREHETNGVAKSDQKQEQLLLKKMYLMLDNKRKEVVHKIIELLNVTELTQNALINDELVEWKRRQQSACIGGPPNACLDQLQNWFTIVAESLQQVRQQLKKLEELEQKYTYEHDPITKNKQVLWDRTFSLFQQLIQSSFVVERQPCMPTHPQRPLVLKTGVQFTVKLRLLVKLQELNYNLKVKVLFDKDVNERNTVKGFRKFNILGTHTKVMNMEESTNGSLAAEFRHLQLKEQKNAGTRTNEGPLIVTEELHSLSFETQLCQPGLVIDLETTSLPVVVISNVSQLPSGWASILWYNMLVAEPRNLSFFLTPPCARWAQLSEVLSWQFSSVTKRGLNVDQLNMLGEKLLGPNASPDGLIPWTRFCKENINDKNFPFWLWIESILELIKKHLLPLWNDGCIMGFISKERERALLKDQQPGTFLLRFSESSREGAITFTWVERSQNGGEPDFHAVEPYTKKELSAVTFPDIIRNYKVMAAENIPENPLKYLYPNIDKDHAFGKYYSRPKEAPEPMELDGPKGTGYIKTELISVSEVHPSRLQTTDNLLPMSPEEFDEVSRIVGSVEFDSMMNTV", "assay": "co-IP; BMSC lysates, no osteogenic induction, 48h post-transfection; STAT1 antibody for pull-down with IgG control, Protein A/G agarose; blots probed for lactylation and Runx2; cells scaffold-free or on PCL/nHA/SL scaffold; band intensities quantified", "conditions": "partners not purified"}, "[4]": {"target": "T1, wild-type STAT1, overexpressed …", "assay": "cell-based or functional assay"}},
  "data": [
    {"binder": "Runx2, overexpressed (pLVX-Runx2) (natural protein, UniProt Q13950 1-521, looked up, Runx2; The anti-Runx2 blot also sees the endogenous Runx2 of the BMSCs; also called Runx2-OE; source: human BMSCs, lentiviral transduction (pLVX-Runx2), in lysate) MASNSLFSTVTPCQQNFFWDPSTSRRFSPPSSSLQPGKMSDVSPVVAAQQQQQQQQQQQQQQQQQQQQQQQEAAAAAAAAAAAAAAAAAVPRLRPPHDNRTMVEIIADHPAELVRTDSPNFLCSVLPSHWRCNKTLPVAFKVVALGEVPDGTVVTVMAGNDENYSAELRNASAVMKNQVARFNDLRFVGRSGRGKSFTLTITVFTNPPQVATYHRAIKVTVDGPREPRRHRQKLDDSKPSLFSDRLSDLGRIPHPSMRVGVPPQNPRPSLNSAPSPFNPQGQSQITDPRQAQSSPPWSYDQSYPSYLSQMTSPSIHSTTPLSSTRGTGLPAITDVPRRISDDDTATSDFCLWPSTLSKKSQAGASELGPFSDPRQFPSISSLTESRFSNPRMHYPATFTYTPPVTSGMSLGMSATTHYHTYLPPPYPGSSQSQSGPFQTSSTPYLYYGTSSGSYQFPMVPGGDRSPSRMLPPCTTTSNGSTLLNPNLPNQNDGVDADGSHSSSPTVLNSSGRMDESVWRPY", "values": [
      {"measurement": "relative co-IP band intensity", "setting": "[1]", "value": 0.286},
      {"measurement": "relative co-IP band intensity", "setting": "[2]", "value": 0.845},
      {"measurement": "relative co-IP band intensity", "setting": "[3]", "value": 0.582},
      {"measurement": "Osteocalcin protein (Western blot) in Runx2-OE + STAT1-OE BMSCs on the PCL/nHA/SL scaffold, rescued to STAT1-KD-like levels", "setting": "[4]", "value": 0.474}
    ]}
  ]
}
